Source: US5616562A, “Methods and compositions using substance P to promote wound healing” (priority 1994, dated 1997)
Each block holds one molecule with its values, some of them ahead of it. Where a SMILES comes first, the peptide text is derived from it. [ ]: non-standard residue; d: D form.

What was measured:
[1] = test system: corneal epithelium; test: Morphological examination of adherence of regenerated corneal epithelium; format: in vivo, rabbit; conditions: after healing of the cornea; masked specimens; systemic capsaicin, or topical enkephalinase in normal rabbits
Text: For both capsaicin-treated rabbits and those treated with topical enkephalinase, regenerated epithelial layers could be easily rubbed off as a sheet of cells after healing of the cornea. This was not found in the control rabbits. Specimens from the various treatment groups were masked and morphologically examined to determine the nature of epithelial adherence. […] Thus, it appears that SP and other neuropeptides contribute to the attachment of epithelial cells during wound healing. Such contribution may take the form of elaboration of extracellular matrices (e.g., fibronectin) as well as development of cellular attachment mechanism, which activity would be in addition to their mitogenic activity in promoting cellular proliferation.

[2] = test system: corneal epithelium; test: Corneal re-epithelialization after debridement in rabbits given systemic capsaicin; format: in vivo, rabbit
Description: In order to investigate the effect of SP treatment on corneal epithelial cell growth, capsaicin (50 mg/kg) was injected subcutaneously into young rabbits on five consecutive days in order to deplete, lower, or block the release of SP in their corneas. Lidocain was injected subcutaneously into the injection site 10 minutes prior to the capsaicin injection. Three weeks after the last injection, the rabbits were anesthetized (ketamine/rompun), topical anesthetic applied to the cornea and the corneal epithelium of both eyes debrided to the limbal margin of clear cornea. The corneas were stained 2× daily with fluorescein and photographed using a cobalt filter to monitor re-epithelialization. Resultant photographs were projected onto a digitizing board and the surface area of ulceration determined. […] Clinically, the capsaicin treated rabbits differed from the control rabbits only in their impaired ability to re-epithelialize the denuded stroma.

[3] = test system: persistent non-septic corneal epithelial defects; test: Open-label clinical trial of topical SP in canine patients with chronic non-septic corneal epithelial defects; format: in vivo, dog; conditions: 500 μ/ml SP topical, 8 times daily
Text: This was a non-controlled open-label clinical trial conducted on canine patients seen in a specialty referral service for chronic, non-septic corneal epithelial defects. Criteria for inclusion included:
1. Absence of an identifiable underlying cause of the epithelial defect (lid abnormalities, decreased tear production etc.) on complete ophthalmic examination.
2. Persistence of the defect for at least 3 weeks.
3. Unresponsive to traditional therapy (topical broad spectrum antibiotics,some cases had received topical hyper-osmotic therapy, and 5 dogs had not healed after placement of a therapeutic soft contact bandage lens).
After obtaining informed consent from the owners, the dogs were taken into the hospital, an Elizabethan collar was placed (to keep the dog from rubbing its eye) and two drops of 500 μ/ml SP were instilled into the affected eye. The dogs were closely observed for any irritant effect of the drops. The dogs were then treated with one drop 8 times daily for duration of the trial.

[4] = test system: epithelial cells; test: SP analogs and fragment: stimulation of DNA synthesis / cell growth; format: cell-based
Description: Several SP analogs were also tested for their ability to stimulate DNA synthesis. An SP analog where norleucine is substituted for methionine at the C-terminus was tested (Nle-SP). Norleucine is a structural analog of methionine where the sulfur is replaced with a CH2 group.

[5] = test system: corneal epithelium; test: Corneal re-epithelialization after debridement in non-capsaicin rabbits treated with topical enkephalinase; format: in vivo, rabbit
Description: To evaluate the effect of SP depletion using another model, the corneal epithelium was removed from non-capsaicin treated rabbits as described above. Enkephalinase (which breaks down SP) was administered 4× daily to one eye of each bilaterally wounded rabbit. The fellow eye received vehicle only 4× daily. […] FIG. 4 underestimates the time course of epithelial healing of both capsaicin treated rabbits and enkephalinase treated corneas for many of these corneas had not re-epithelialized at the termination of the experiments. In 12 rabbits, the enkephalinase treated eye always took longer to heal. In FIG. 5, typical plots for one rabbit (the other 11 rabbits gave essentially the same results) of wound area with time are presented. The solid line represents the enkephalinase-treated eye while the broken line represents the control without enkephalinase. In each case the enkephalinase treated eye and the vehicle treated eye appeared to heal at the same rate for the first 80 to 90 hours. […] The initial healing rate was probably due to migration of pre-existing cells onto the peripheral wound. After 80 to 90 hours synthesis of new cells is required in order to completely cover the wound. […]

[6] = test system: epithelial cells; test: Effect of enkephalinase on the ability of SP and insulin to stimulate DNA synthesis; format: cell-based
Description: Substance P (SP) was tested for its ability to stimulate cell growth in epithelial cells from both cornea and lens that were arrested in the G1 /Go phase of the cell cycle in serum free media. […] See, FIG. 1 for corneal and FIG. 2 for lens epithelial cells. To test whether this effect was due to SP, 1 μg/ml of enkephalinase (an enzyme that cleaves SP between amino acid residues 6-7, 7-8, and 9-10) was added.
In the previous experiment, the enkephalinase was added to the cells at the same time as the SP.

Molecule: COc1cc(CNC(=O)CCCC/C=C/C(C)C)ccc1O [capsaicin]
adherence of regenerated corneal epithelium [1]: poorly adhered
time to re-epithelialize the denuded cornea ([2]; capsaicin 50 mg/kg subcutaneously on five consecutive days, wounding three weeks later, vs 160 hours in non-capsaicin rabbits (FIG. 4)): 460 h
clinical evidence of impaired lacrimation or other secondary phenomenon ([2]; capsaicin treated rabbits): No clinical evidence

complications [3]: No complications were observed
Molecule: CSCC[C@H](NC(=O)[C@H](CC(C)C)NC(=O)CNC(=O)[C@H](Cc1ccccc1)NC(=O)[C@H](Cc1ccccc1)NC(=O)[C@H](CCC(N)=O)NC(=O)[C@H](CCC(N)=O)NC(=O)[C@@H]1CCCN1C(=O)[C@H](CCCCN)NC(=O)[C@@H]1CCCN1C(=O)[C@@H](N)CCCN=C(N)N)C(N)=O [SP, Substance P]

Molecule: fragment of substance P including only amino acids 5-11: fragment of substance P including only amino acids 5-11 (GlnPhePheGlyLeuMet)
promotion of cellular growth [4]: active

Molecule: CC(C)C[C@H](NC(=O)[C@H](CC(C)C)NC(=O)[C@@H](Cc1c[nH]c2ccccc12)NC(=O)[C@H](Cc1ccccc1)NC(=O)[C@@H](Cc1c[nH]c2ccccc12)NC(=O)[C@H](CCC(N)=O)NC(=O)[C@H](CCC(N)=O)NC(=O)[C@@H]1CCCN1C(=O)[C@H](CCCCN)NC(=O)[C@@H]1CCCN1C(=O)[C@H](N)CCCNC(=N)N)C(N)=O [spantide] (H-[dR]PKPQQ[dW]F[dW]LL-NH2)
promotion of cellular growth [4]: stimulate epithelial cell growth

B1: enkephalinase: an enzyme that cleaves SP between amino acid residues 6-7, 7-8, and 9-10 (protein, UniProt P08473 2-750, looked up)
Neprilysin: GKSESQMDITDINTPKPKKKQRWTPLEISLSVLVLLLTIIAVTMIALYATYDDGICKSSDCIKSAARLIQNMDATTEPCTDFFKYACGGWLKRNVIPETSSRYGNFDILRDELEVVLKDVLQEPKTEDIVAVQKAKALYRSCINESAIDSRGGEPLLKLLPDIYGWPVATENWEQKYGASWTAEKAIAQLNSKYGKKVLINLFVGTDDKNSVNHVIHIDQPRLGLPSRDYYECTGIYKEACTAYVDFMISVARLIRQEERLPIDENQLALEMNKVMELEKEIANATAKPEDRNDPMLLYNKMTLAQIQNNFSLEINGKPFSWLNFTNEIMSTVNISITNEEDVVVYAPEYLTKLKPILTKYSARDLQNLMSWRFIMDLVSSLSRTYKESRNAFRKALYGTTSETATWRRCANYVNGNMENAVGRLYVEAAFAGESKHVVEDLIAQIREVFIQTLDDLTWMDAETKKRAEEKALAIKERIGYPDDIVSNDNKLNNEYLELNYKEDEYFENIIQNLKFSQSKQLKKLREKVDKDEWISGAAVVNAFYSSGRNQIVFPAGILQPPFFSAQQSNSLNYGGIGMVIGHEITHGFDDNGRNFNKDGDLVDWWTQQSASNFKEQSQCMVYQYGNFSWDLAGGQHLNGINTLGENIADNGGLGQAYRAYQNYIKKNGEEKLLPGLDLNHKQLFFLNFAQVWCGTYRPEYAVNSIKTDVHSPGNFRIIGTLQNSAEFSEAFHCRKNSYMNPEKKCRVW
healing rate (wound area with time) ([5]; after the first 80 to 90 hours (FIG. 5)): slow dramatically
re-epithelialization compared to fellow eye treated with vehicle ([5]; enkephalinase 4× daily to one eye, 12 rabbits (FIG. 4)): markedly impair re-epithelialization
effect of enkephalinase on SP-stimulated DNA synthesis ([6]; 1 μg/ml enkephalinase added at the same time as SP (FIG. 3)): destroyed all activity of SP by itself
effect of enkephalinase on insulin-stimulated DNA synthesis ([6]; 1 μg/ml enkephalinase, insulin alone (FIG. 3)): did not affect the activity of insulin alone
effect of enkephalinase pretreatment on the SP effect ([6]; cells pretreated 1 to 3 hours, enkephalinase then removed, especially in the presence of insulin): enhancement of the SP effect
harmful effects on epithelial cells ([6]; enkephalinase by itself): no harmful effects
adherence of regenerated corneal epithelium [1]: poorly adhered
